Measured values from PMC6586535 (Leukemia & lymphoma, 2018).

Target: T1, aryl hydrocarbon receptor (human (endogenous in HL-60), UniProt P35869 11-848)
T1 sequence (looked up): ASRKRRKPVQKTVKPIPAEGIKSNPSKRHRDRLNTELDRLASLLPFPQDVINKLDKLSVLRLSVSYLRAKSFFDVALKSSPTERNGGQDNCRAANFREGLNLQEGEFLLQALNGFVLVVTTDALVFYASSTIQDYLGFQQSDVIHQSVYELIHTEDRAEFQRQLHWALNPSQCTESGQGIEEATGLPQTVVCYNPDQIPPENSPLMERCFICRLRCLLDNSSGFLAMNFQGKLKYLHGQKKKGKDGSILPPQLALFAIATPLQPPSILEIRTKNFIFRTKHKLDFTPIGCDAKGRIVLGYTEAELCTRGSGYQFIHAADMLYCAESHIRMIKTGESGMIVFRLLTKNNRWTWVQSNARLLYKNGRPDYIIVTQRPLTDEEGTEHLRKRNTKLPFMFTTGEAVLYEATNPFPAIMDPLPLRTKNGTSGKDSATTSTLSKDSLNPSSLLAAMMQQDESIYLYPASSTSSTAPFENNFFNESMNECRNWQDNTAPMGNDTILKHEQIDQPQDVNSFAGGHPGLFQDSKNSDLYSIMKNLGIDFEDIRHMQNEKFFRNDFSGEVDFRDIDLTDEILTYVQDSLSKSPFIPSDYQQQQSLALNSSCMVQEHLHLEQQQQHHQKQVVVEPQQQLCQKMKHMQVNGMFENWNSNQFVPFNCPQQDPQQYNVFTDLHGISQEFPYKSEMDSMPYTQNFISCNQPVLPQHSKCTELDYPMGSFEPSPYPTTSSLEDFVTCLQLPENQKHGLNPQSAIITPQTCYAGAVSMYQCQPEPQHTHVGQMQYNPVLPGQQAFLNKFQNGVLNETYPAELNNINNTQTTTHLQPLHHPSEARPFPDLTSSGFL
Test: FRET or BRET

B1: Cbl-b (natural protein, human (endogenous in HL-60), UniProt Q13191 1-982, looked up)
chain: MANSMNGRNPGGRGGNPRKGRILGIIDAIQDAVGPPKQAAADRRTVEKTWKLMDKVVRLCQNPKLQLKNSPPYILDILPDTYQHLRLILSKYDDNQKLAQLSENEYFKIYIDSLMKKSKRAIRLFKEGKERMYEEQSQDRRNLTKLSLIFSHMLAEIKAIFPNGQFQGDNFRITKADAAEFWRKFFGDKTIVPWKVFRQCLHEVHQISSGLEAMALKSTIDLTCNDYISVFEFDIFTRLFQPWGSILRNWNFLAVTHPGYMAFLTYDEVKARLQKYSTKPGSYIFRLSCTRLGQWAIGYVTGDGNILQTIPHNKPLFQALIDGSREGFYLYPDGRSYNPDLTGLCEPTPHDHIKVTQEQYELYCEMGSTFQLCKICAENDKDVKIEPCGHLMCTSCLTAWQESDGQGCPFCRCEIKGTEPIIVDPFDPRDEGSRCCSIIDPFGMPMLDLDDDDDREESLMMNRLANVRKCTDRQNSPVTSPGSSPLAQRRKPQPDPLQIPHLSLPPVPPRLDLIQKGIVRSPCGSPTGSPKSSPCMVRKQDKPLPAPPPPLRDPPPPPPERPPPIPPDNRLSRHIHHVESVPSRDPPMPLEAWCPRDVFGTNQLVGCRLLGEGSPKPGITASSNVNGRHSRVGSDPVLMRKHRRHDLPLEGAKVFSNGHLGSEEYDVPPRLSPPPPVTTLLPSIKCTGPLANSLSEKTRDPVEEDDDEYKIPSSHPVSLNSQPSHCHNVKPPVRSCDNGHCMLNGTHGPSSEKKSNIPDLSIYLKGDVFDSASDPVPLPPARPPTRDNPKHGSSLNRTPSDYDLLIPPLGEDAFDALPPSLPPPPPPARHSLIEHSKPPGSSSRPSSGQDLFLLPSDPFVDLASGQVPLPPARRLPGENVKTNRTSQDYDQLPSCSDGSQAPARPPKPRPRRTAPEIHHRKPHGPEAALENVDAKIAKLMGEGYAFEEVKRALEIAQNNVEVARSILREFAFPPPVSPRLNL
fold weaker FRET signal than the RARα/RXRα interaction: ~4 fold
